Assay results reported in publication PMC3699631, “Posttranslational Modifications of the Histone 3 Tail and Their Impact on the Activity of Histone Lysine Demethylases In Vitro” (PLoS ONE, 2013).
“Also recorded” adds a separate entry of the source.

Biological target: T1, human FL-KDM4A (Homo sapiens, UniProt O75164)
T1 construct: along with the full length FL- KDM4C and FL-KDM4A using various synthetic histone tail peptides as substrates; His6 (N); made in house; host or cells: High Five (Trichoplusia ni) insect cells, baculovirus
T1 sequence (O75164 1-1064): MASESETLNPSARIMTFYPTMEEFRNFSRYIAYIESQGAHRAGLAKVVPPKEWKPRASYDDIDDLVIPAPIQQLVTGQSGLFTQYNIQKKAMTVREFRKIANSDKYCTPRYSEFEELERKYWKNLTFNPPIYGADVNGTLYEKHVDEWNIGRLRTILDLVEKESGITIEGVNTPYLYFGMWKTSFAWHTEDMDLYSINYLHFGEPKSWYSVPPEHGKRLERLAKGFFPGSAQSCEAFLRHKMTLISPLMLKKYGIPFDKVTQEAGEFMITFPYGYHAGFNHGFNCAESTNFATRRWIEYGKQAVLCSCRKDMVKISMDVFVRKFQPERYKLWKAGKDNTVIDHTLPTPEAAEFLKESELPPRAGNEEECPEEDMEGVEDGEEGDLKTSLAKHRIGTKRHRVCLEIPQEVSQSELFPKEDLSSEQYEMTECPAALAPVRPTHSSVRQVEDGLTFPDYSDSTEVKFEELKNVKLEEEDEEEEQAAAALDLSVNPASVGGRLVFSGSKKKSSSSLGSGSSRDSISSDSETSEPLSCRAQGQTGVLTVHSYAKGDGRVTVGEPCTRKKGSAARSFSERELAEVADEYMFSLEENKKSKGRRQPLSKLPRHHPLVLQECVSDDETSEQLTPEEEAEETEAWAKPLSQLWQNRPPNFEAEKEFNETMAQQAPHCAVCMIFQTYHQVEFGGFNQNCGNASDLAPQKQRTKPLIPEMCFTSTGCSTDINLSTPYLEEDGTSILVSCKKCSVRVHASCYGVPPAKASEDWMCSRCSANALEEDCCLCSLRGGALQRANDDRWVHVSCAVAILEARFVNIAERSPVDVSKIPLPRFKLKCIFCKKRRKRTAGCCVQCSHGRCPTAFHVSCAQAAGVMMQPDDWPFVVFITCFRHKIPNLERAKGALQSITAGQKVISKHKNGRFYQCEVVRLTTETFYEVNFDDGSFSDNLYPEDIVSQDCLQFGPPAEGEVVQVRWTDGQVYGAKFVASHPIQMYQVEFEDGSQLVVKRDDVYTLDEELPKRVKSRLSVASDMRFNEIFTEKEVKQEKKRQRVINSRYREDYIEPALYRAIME
Assay: FDH-assay enzyme kinetics of H3 peptide demethylation, full length KDM4A
Type: biochemical
Set-up: key to K m / k cat / k cat /K m: 0 means no demethylation could be detected
Conditions: for demethylation / catalytic activity (in words) / K m / k cat / k cat /K m: FDH-assay; for K m: 50 mM HEPES (pH 7.5), 50 mM NaCl, 50 µM FeSO4, 500 µM α-KG, 500 µM ascorbate, 2 mM NAD, substrate 10–1000 µM, NADH fluorescence 15–30 minutes; for K m / k cat: triplicate; for k cat: pH 7.5, NADH fluorescence; for k cat /K m: pH 7.5, triplicate
Method: The enzyme kinetics were measured using a Formaldehyde DeHydrogenase Assay (FDH-Assay) and the demethylation of substrates was confirmed when possible by MALDI-TOF-MS, see File S1 for details. The test solution contained 50 mM HEPES (pH 7.5), 50 mM NaCl, 50 µM FeSO4, 500 µM α-KG, 500 µM ascorbate, 2 mM NAD, approximately 0.05 unit of FDH and e.g. 4.88 µM KDM4C (enzyme concentration varied between batches). The reference solution was comprised of the same except substrate. The assay was initiated by adding various concentrations of H3 peptide substrates e.g. H3(1–24)K9me3 (10–1000 µM) and the increase in NADH fluorescence was measured over 15–30 minutes in 30 second intervals. Data analysis and kinetic values were obtained using programs Excel and GraphPad Prism® 5.0. For details, see File S1.
The standard deviations for k cat/K m were calculated using the statistic law of propagation of errors. Standard errors for Michaelis-Menten Kinetics were automatically given in GraphPad Prism®, with a 95% confidence interval. All enzyme kinetic curves were done in triplicate unless otherwise stated.
Test for activity of enzyme using the fluorescence FDH assay, determination of Vmax and Km of enzymes with substrate, expression and purification of cc-KDM4A and cc-KDM4C software and parameters for the FDH coupled assay, see Lohse et al.^21
Recombinant baculoviridae encoding the full Open Reading Frame (ORF) of FL-KDM4A and FL-KDM4C were generously donated from the Biotech Research and Innovation Centre (BRIC), University of Copenhagen, Denmark. Recombinant protein was expressed by adding High Titer Stocks to High Five (Trichopulsia ni) insect cells in suspension culture. The cell cultures were harvested by centrifugation after ~ 60 hours and the cells were resuspended in hypotonic buffer (25 mM Hepes-KOH, pH 7.7, 1.5 mM MgCl, 5 mM KCl) supplemented with one protease inhibitor cocktail tablet per 500 ml expression (Roche, EDTA-free). The resuspended cells were frozen at -20 °C.
Both proteins were purified by IMAC using Talon FF (Clontech) cobalt resin according to the following protocol; resuspended cells were thawed on ice, 100 ml hypotonic buffer was added per 500 ml expression volume and the cells were incubated with stirring for 30 min. at 4 °C, followed by a brief (30 s per 500 ml culture volume) sonication. β-mercaptoethanol (BME, 2 mM final concentration), Triton X-100 (0.2 % final concentration) and NaCl (300 mM final concentration) were added and the cell suspension was stirred for another 30 min at 4 °C. The lysate was cleared by centrifugation at 50.000 g for 60 minutes. The cleared lysates were adjusted to 5 mM imidazole and incubated with Talon resin (1 ml /500 ml expression) for 60 minutes. The resin was allowed to sediment, the lysate removed and the resin was transferred to PD-10 gravity flow columns (GE Healthcare). The resin was washed with 10 column volumes of binding buffer (50 mM Hepes-KOH, pH 7.7, 300 mM NaCl, 5 mM imidazole, 10% glycerol, 0.05 % Triton X-100, 2 mM BME) and eluted with 2 x 2.5 ml elution buffer (50 mM Hepes-KOH, pH 7.7, 300 mM NaCl, 100 mM imidazole, 10 % glycerol, 0.05 % Triton X-100, 2 mM BME). Each eluted fraction has its buffer changed to 50 mM Hepes pH 7.5, 300 mM NaCl, 10 % glycerol using a PD-10 desalting column. The protein was concentrated to 6-7 mg/ml (FL-KDM4A) or 10-12 mg/ml (FL-KDM4C). Despite the buffer change it is likely that small amounts of Triton X-100 remained in the protein samples. Triton X-100 has a significant absorbance at 280 nm, so the protein concentration was determined by Bradford assay using a BSA standard curve. The protein purity was approximately 70 % as judged from SDS-PAGE. The concentrated protein was aliquoted and stored at -80 °C until assays were performed.
The standard deviations for kcat/ Km were calculated using the statistic law of propagation of errors. […]

[1] = SD by propagation of errors, unit: (min^−1 * µM^−1) * 10^3

Row | Substance | demethylation / catalytic activity (in words) | K m | k cat | k cat /K m [1] | k cat /K m (figures) [min^-1 * μM^-1 * 10^3] | fold increase in k cat/K m (compared to H3(1–24)K9me3) [fold]
1 | H3(1–24)K9me2: truncated histone tail, 24 first amino acids from the N-terminus of H3, dimethylated lysine 9 | too low to be detected; also recorded: could not be detected | 0 | 0 | 0 |  | 
2 | H3(1–24)K9me3T11(ph): H3(1–24)K9me3 with phosphorylation of threonine 11 | no detectable turnover | 0 | 0 | 0 |  | 
3 | H3(1–24)K9me3: truncated histone tail, 24 first amino acids from the N-terminus of H3, trimethylated lysine 9; control peptide | preference for the H3K9me3 over the H3K9me2 | 122±31 |  | 3.1±0.3 | 3 ± 0.4 | 
4 | H3(1–24)K4me3K9me3: bis-tri-methylated substrate, trimethylated K4 in combination with H3K9me3 | an increase in FL-KDM4A demethylation activity, which is significantly higher compared to cc-KDM4A | 45±9 | 2.2±0.3 |  | 50 ± 9 | 17
